T1: rNav1.2a VSD IV paddle peptide (R1629A/L1630A, SEQ ID NO: 4) (Rattus norvegicus, UniProt P04775, L1630A/R1629A)
T1 construct: purchased ProteoGenix; host or cells: chemical synthesis (Fmoc solid phase)
T1 sequence (P04775 1605-1636 R1629A/L1630A): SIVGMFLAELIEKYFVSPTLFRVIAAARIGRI

T2: rNav1.2a VSD II paddle peptide (V843A, SEQ ID NO: 2) (Rattus norvegicus, UniProt P04775, V843A)
T2 construct: purchased ProteoGenix; host or cells: chemical synthesis (Fmoc solid phase)
T2 sequence (P04775 832-856 V843A): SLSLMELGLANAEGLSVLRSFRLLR

B1: TsVII: β-scorpion toxin from the Brazilian scorpion Tityus serrulatus (protein, UniProt P15226 21-81, looked up)
Beta-mammal/insect toxin Ts1: KEGYLMDHEGCKLSCFIRPSGYCGRECGIKKGSSGYCAWPACYCYGLPNWVKVWDRATNKC
B2: LqqV: Nav channel-selective α-scorpion toxin from Leiurus quinquestriatus hebraeus (protein)
chain: LKDGYIVDDKNCTFFCGRNAYCNDECKKKGGESGYCQWASPYGNACWCYKLPDRVSIKEKGRCN
B3: BomIV: α-like scorpion toxin from Buthus occitanus mardochei (protein)
chain: GRDAYIAQPENCVYECAKNSYCNDLCTKNGAKSGYCQWLGKYGNACWCEDLPDNVPIRIPGKCHF
B4: AaHI: Nav channel-selective α-scorpion toxin from Androctonus australis hector (protein)
chain: KRDGYIVYPNNCVYHCVPPCDGLCKKNGGSSGSCSFLVPSGLACWCKDLPDNVPIKDTSRKCT

Experiments:
[1] = biological target: T1, rNav1.2a VSD IV paddle peptide (R1629A/L1630A, SEQ ID NO: 4); experiment: SPR on immobilized rNav1.2a VSD IV paddle peptide; format: binding; conditions: 100 nM toxin; 500 fmol peptide
[2] = biological target: T2, rNav1.2a VSD II paddle peptide (V843A, SEQ ID NO: 2); experiment: SPR on immobilized rNav1.2a VSD II paddle peptide; format: binding; conditions: 100 nM toxin; 500 fmol peptide
Experimental: SPR experiments were performed at 25° C. on a Biacore™ T200 instrument (GE Healthcare) using 150 mM NaCl, 3 mM EDTA, 0.005% surfactant P20, and 10 mM HEPES-NaOH, pH 7.4, for the coupling protocol or 50 mM phosphate, pH 7.2, as running buffer. Neutravidin (Thermo Fisher Scientific) was immobilized on CM5 sensor chips (GE Healthcare) using an amine coupling chemistry. All chemicals were obtained from Sigma-Aldrich. […] In all SPR experiments, nonspecific binding obtained in the control flow cell was subtracted from the signal obtained in the experimental flow cell. For qualitative binding analysis, toxins (100 nM in running buffer containing 0.1% BSA) were injected at a flow rate of 20 μl/min over 2 min. […] In between injections, the surface of the sensor chip was regenerated by injecting 1 M NaCl (15 s at 30 l/min). The bulk signal caused by refractive index differences between the flow buffer and the buffer containing the analyte was systematically excluded from the data-fitting process. It is worth noting that isolating a paddle motif (ligand) can induce conformational changes that can affect toxin (analyte) efficacy. […] Sensorgrams can reveal such ligand heterogeneity by displaying biphasic dissociation curves that cannot be fitted with the frequently used Langmuir model, which assumes a 1:1 stoichiometry of analyte to ligand. To account for a possible heterogeneity of surface sites, we calculated the rate constants and affinity equilibrium dissociation constants (KD) for AaHII by a fit to a heterogeneous ligand model incorporated into the Biacore T200 Evaluation™ software (v1.0). This model assumes the presence of two sites on the ligand that can bind analyte and can be described by these equations in which A represents the analyte and B1/B2 represents the heterogeneous ligand:
(A) Shown are the CD spectra of the rNav1.2a VSD II and IV paddle peptides used in this paper. […] (B) Representative association and dissociation kinetic curves obtained using SPR after the application of varying concentrations of AaHII (15-2,000 nM) over a sensor chip to which 50 fmol of the rNav1.2a VSD IV paddle peptide was linked. Toxin was applied after obtaining a steady baseline. Colored traces represent toxin binding obtained after subtraction of the signal from the control flow cell. […] Toxin concentrations are indicated on the right in a shade of gray corresponding to the sensorgram. (C) Representative SPR traces after the application of 100 nM KTX, AaHI, AaHII, LqqV, BomIV, TsVII, and CssIV over a sensor chip to which the rNav1.2a VSD II (left) or IV (right) paddle peptide (500 fmol) was linked. Toxin was applied after obtaining a steady baseline. (D) Binding capacities of 100 nM α-scorpion toxins AaHI, AaHII, LqqV, the α-like scorpion toxin BomIV, and the β-scorpion toxins TsVII and CssIV to the VSD II and IV paddle motifs using SPR (error bars represent±SEM). Y-axis represents the maximum RUs obtained after toxin application.
Next, the VSD IV peptide was fixed on SPR sensor chips by adding a K-linked biotin group to the C terminus, resulting in a 32-amino acid peptide altogether (SEQ ID NO: 4 which is mutated SEQ ID NO: 3 of FIG. 2A).

[3] = biological target: rNav1.2a/Kv2.1 VSD II paddle chimera; conditions: read-out: apparent KD, paddle motif in the domain II voltage sensor; cited from earlier work
rNav1.2a/Kv2.1 VSD II paddle chimera, sequence (P04775 832-856 limits assumed, change not shown): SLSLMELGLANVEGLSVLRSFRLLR

[4] = test system: rNav1.2a/Kv2.1 VSD IV paddle chimera; conditions: cited from earlier work
rNav1.2a/Kv2.1 VSD IV paddle chimera, sequence (P04775 1605-1636 limits assumed, change not shown): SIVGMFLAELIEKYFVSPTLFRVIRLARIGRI

rNav1.2a = experiment: Two-electrode voltage-clamp, rNav1.2a expressed in Xenopus oocytes; format: cell-based, rat; conditions: 100 nM toxin; for effect on rNav1.2a fast inactivation: 50-ms test pulse; for fast inactivation time constant (τ) after toxin application: single-exponential fit of current decay, n=3, mean±SEM
Text: (§1) The DNA sequence of rat (r)Nav1.2a (provided by A. Goldin, University of California, Irvine, Irvine, Calif.), rKv2.1 (provided by K. J. Swartz, National Institutes of Health), and the rNav1.2a/Kv2.1 VSD II or IV chimera was confirmed by automated DNA sequencing, and cRNA was synthesized using T7 polymerase (mMessage mMachine™ kit; Life Technologies) after linearizing the DNA with appropriate restriction enzymes. Channels were expressed in Xenopus oocytes (obtained from Xenopus 1) and studied after a 1-d incubation after cRNA injection (incubated at 17° C. in 96 mM NaCl, 2 mM KCl, 5 mM HEPES, 1 mM MgCl2, 1.8 mM CaCl2, and 50 μg/ml gentamycin, pH 7.6 with NaOH) using two-electrode voltage-clamp recording techniques (OC-725C; Warner Instruments) with a 150-μl recording chamber. Data were filtered at 4 kHz and digitized at 20 kHz using pClamp™ 10 software (Molecular Devices). Microelectrode resistances were 0.5-1.5 MΩ when filled with 3 M KCl. For Kv chimera channel experiments, the external recording solution contained (mM): 50 KCl, 50 NaCl, 5 HEPES, 1 MgCl2, and 0.3 CaCl2, pH 7.6 with NaOH. For rNav1.2a experiments, the external recording solution contained (mM): 100 NaCl, 5 HEPES, 1 MgCl2, and 1.8 CaCl2, pH 7.6 with NaOH. All experiments were performed at ˜22° C. Leak and background conductances, identified by blocking the channel with agitoxin-2 (provided by K. J. Swartz), have been subtracted for all of the Kv channel currents shown. […] Voltage-activation relationships were obtained by measuring tail currents for Kv channels or steady-state currents and calculating conductance for Nav channels, and a single Boltzmann function was fitted to the data according to I/Imax=[1c+cexp(−zF(Vc−cV1/2)/RT)]^−1, where I/Imax is the normalized tail-current amplitude, z is the equivalent charge, V1/2 is the half-activation voltage, F is Faraday's constant, R is the gas constant, and T is temperature in kelvin. For all channels, voltage-activation relationships were recorded in the absence and presence of toxin. The ratio of currents (I/I0) recorded in the presence (I) and absence (I0) of toxin was calculated for voltages typically ranging from −140 to 10 cmV, depending on the construct. […] The apparent equilibrium dissociation constant (apparent KD) for Kv channels was calculated according to KD=((1/(1c−cFu^1/4))c−c1)[toxin], assuming four independent toxin-binding sites per channel. Results are given as mean±SEM unless noted otherwise. Offline data analysis was performed using Clampfit 10™ (Molecular Devices), Origin 8.0™ (OriginLab), and Excel™ (Microsoft). All chemicals were obtained from Sigma-Aldrich.
(§2) Representative sodium currents were elicited by a 50-ms depolarization to a suitable membrane voltage (−20 to −15 mV) before (black) and after toxin addition (green) from a holding voltage of −90 mV. […] For each toxin, K^+ currents were elicited by a 300-ms depolarization to 0 mV from a holding voltage of −90 mV (tail voltage was −60 mV). […] For each toxin, K^+ currents (top) were elicited by a 300-ms depolarization near the foot of the voltage-activation curve (bottom) from a holding voltage of −90 mV.

WT rKv2.1 = experiment: Two-electrode voltage-clamp, WT rKv2.1 in Xenopus oocytes; format: cell-based, rat; conditions: 1 μM toxin
Text: The DNA sequence of rat (r)Nav1.2a (provided by A. Goldin, University of California, Irvine, Irvine, Calif.), rKv2.1 (provided by K. J. Swartz, National Institutes of Health), and the rNav1.2a/Kv2.1 VSD II or IV chimera was confirmed by automated DNA sequencing, and cRNA was synthesized using T7 polymerase (mMessage mMachine™ kit; Life Technologies) after linearizing the DNA with appropriate restriction enzymes. Channels were expressed in Xenopus oocytes (obtained from Xenopus 1) and studied after a 1-d incubation after cRNA injection (incubated at 17° C. in 96 mM NaCl, 2 mM KCl, 5 mM HEPES, 1 mM MgCl2, 1.8 mM CaCl2, and 50 μg/ml gentamycin, pH 7.6 with NaOH) using two-electrode voltage-clamp recording techniques (OC-725C; Warner Instruments) with a 150-μl recording chamber. Data were filtered at 4 kHz and digitized at 20 kHz using pClamp™ 10 software (Molecular Devices). Microelectrode resistances were 0.5-1.5 MΩ when filled with 3 M KCl. For Kv chimera channel experiments, the external recording solution contained (mM): 50 KCl, 50 NaCl, 5 HEPES, 1 MgCl2, and 0.3 CaCl2, pH 7.6 with NaOH. For rNav1.2a experiments, the external recording solution contained (mM): 100 NaCl, 5 HEPES, 1 MgCl2, and 1.8 CaCl2, pH 7.6 with NaOH. All experiments were performed at ˜22° C. Leak and background conductances, identified by blocking the channel with agitoxin-2 (provided by K. J. Swartz), have been subtracted for all of the Kv channel currents shown. […] For all channels, voltage-activation relationships were recorded in the absence and presence of toxin. The ratio of currents (I/I0) recorded in the presence (I) and absence (I0) of toxin was calculated for voltages typically ranging from −140 to 10 cmV, depending on the construct. […] The apparent equilibrium dissociation constant (apparent KD) for Kv channels was calculated according to KD=((1/(1c−cFu^1/4))c−c1)[toxin], assuming four independent toxin-binding sites per channel. […]

[5] = test system: rNav1.2a/Kv2.1 VSD IV paddle chimera; experiment: Two-electrode voltage-clamp, rNav1.2a/Kv2.1 VSD IV paddle chimera in Xenopus oocytes; format: cell-based, rat; conditions: 100 nM toxin; for depolarizing shift in midpoint (V1/2): Boltzmann fit, n=3
Text: as §1, §2

Molecule | SPR binding to VSD IV paddle peptide [1] | SPR binding to VSD II paddle peptide [2] | Kd [3] [nM] | binding to the VSD IV paddle, electrophysiological data from chimeras [4] | effect on rNav1.2a fast inactivation (rNav1.2a) | fast inactivation time constant (τ) after toxin application (rNav1.2a) | effect on WT Kv2.1 K+ current (WT rKv2.1) | K+ current inhibition of VSD IV chimera [5] | depolarizing shift in midpoint (V1/2) [5] [mV]
kaliotoxin (GVEINVKCSGSPQCLKPCKDAGMRFGKCMNRKCHCTPK) [KTX, negative control, reference compound] | did not bind | did not bind |  |  |  |  |  |  | 
B1 | responded | responded | 112 ± 12 | can also bind |  |  |  |  | 
B2 |  | a response was not obtained |  |  | inhibits rNav1.2a fast inactivation | 4.6±0.1 | insensitive | robust voltage-dependent K^+ current inhibition | > 50
B3 |  | a response was not obtained |  |  | inhibits rNav1.2a fast inactivation | 8.5±0.1 | insensitive | robust voltage-dependent K^+ current inhibition | ~26
B4 |  | a response was not obtained |  |  | inhibits rNav1.2a fast inactivation | 4.7±0.1 | insensitive | robust voltage-dependent K^+ current inhibition | ~15

From patent publication US10429300B2, “Surface plasmon resonance approach to monitor protein-ligand interactions” (The Johns Hopkins University, priority 2015, dated 2019)
